{"source": "paper PMC6660772", "about": "“Structure of KAP1 tripartite motif identifies molecular interfaces required for retroelement silencing” (Proceedings of the National Academy of Sciences of the …, 2019)", "binders": {"B1": {"name": "KAP1 RING-B-box 1 (RB1; residues 50-200) (domain or fragment, human, UniProt Q13263 50-200, looked up)", "chain": "SPAGGGAEALELLEHCGVCRERLRPEREPRLLPCLHSACSACLGPAAPAAANSSGDGGAAGDGTVVDCPVCKQQCFSKDIVENYFMRDSGSKAATDAQDANQCCTSCEDNAPATSYCVECSEPLCETCVEAHQRVKYTKDHTVRSTGPAKS", "notes": "KAP1 (TRIM28), human, UniProt Q13263, residues 50-200 (RING and B-box 1); also called RING-B-box 1 fragment; RING-Box-1 fragment; not shown: His6, N-terminal, cleaved"}, "B2": {"name": "KAP1 RBCC V114A/Q123A/F125A/K127A (RING domain mutant) (domain or fragment, human, UniProt Q13263 50-413, looked up)", "chain": "SPAGGGAEALELLEHCGVCRERLRPEREPRLLPCLHSACSACLGPAAPAAANSSGDGGAAGDGTAVDCPVCKQACASADIVENYFMRDSGSKAATDAQDANQCCTSCEDNAPATSYCVECSEPLCETCVEAHQRVKYTKDHTVRSTGPAKSRDGERTVYCNVHKHEPLVLFCESCDTLTCRDCQLNAHKDHQYQFLEDAVRNQRKLLASLVKRLGDKHATLQKSTKEVRSSIRQVSDVQKRVQVDVKMAILQIMKELNKRGRVLVNDAQKVTEGQQERLERQHWTMTKIQKHQEHILRFASWALESDNNTALLLSKKLIYFQLHRALKMIVDPVEPHGEMKFQWDLNAWTKSAEAFGKIVAERP", "notes": "KAP1 (TRIM28), human, UniProt Q13263, RBCC residues 50-413 with four mutations in the RING domain; also called RBCC with RING domain mutations; source: E. coli BL21 (DE3), purified; not shown: His6, N-terminal, cleaved"}, "B3": {"name": "KAP1 RBCC N235A/A236D/K238A/D239A/F244A/L245A (B-box 2 mutant) (domain or fragment, human, UniProt Q13263 50-413, looked up)", "chain": "B2 chain with A65V, A74Q, A76F, A78K, N186A, A187D, K189A, D190A, F195A, L196A", "notes": "KAP1 (TRIM28), human, UniProt Q13263, RBCC residues 50-413 with six mutations in and next to B-box 2; also called RBCC with the B-box 2 mutations; source: E. coli BL21 (DE3), purified; not shown: His6, N-terminal, cleaved"}, "B4": {"name": "full-length KAP1 (residues 1-835) (natural protein, human, UniProt Q13263 1-835, looked up)", "chain": "MAASAAAASAAAASAASGSPGPGEGSAGGEKRSTAPSAAASASASAAASSPAGGGAEALELLEHCGVCRERLRPEREPRLLPCLHSACSACLGPAAPAAANSSGDGGAAGDGTVVDCPVCKQQCFSKDIVENYFMRDSGSKAATDAQDANQCCTSCEDNAPATSYCVECSEPLCETCVEAHQRVKYTKDHTVRSTGPAKSRDGERTVYCNVHKHEPLVLFCESCDTLTCRDCQLNAHKDHQYQFLEDAVRNQRKLLASLVKRLGDKHATLQKSTKEVRSSIRQVSDVQKRVQVDVKMAILQIMKELNKRGRVLVNDAQKVTEGQQERLERQHWTMTKIQKHQEHILRFASWALESDNNTALLLSKKLIYFQLHRALKMIVDPVEPHGEMKFQWDLNAWTKSAEAFGKIVAERPGTNSTGPAPMAPPRAPGPLSKQGSGSSQPMEVQEGYGFGSGDDPYSSAEPHVSGVKRSRSGEGEVSGLMRKVPRVSLERLDLDLTADSQPPVFKVFPGSTTEDYNLIVIERGAAAAATGQPGTAPAGTPGAPPLAGMAIVKEEETEAAIGAPPTATEGPETKPVLMALAEGPGAEGPRLASPSGSTSSGLEVVAPEGTSAPGGGPGTLDDSATICRVCQKPGDLVMCNQCEFCFHLDCHLPALQDVPGEEWSCSLCHVLPDLKEEDGSLSLDGADSTGVVAKLSPANQRKCERVLLALFCHEPCRPLHQLATDSTFSLDQPGGTLDLTLIRARLQEKLSPPYSSPQEFAQDVGRMFKQFNKLTEDKADVQSIIGLQRFFETRMNEAFGDTKFSAVLVEPPPMSLPGAGLSSQELSGGPGDGP", "notes": "KAP1 (TRIM28), human, UniProt Q13263, full length, residues 1-835; Purified as T4L-RBCC, that is without removal of the His6 tag; a TEV site (ENLYFQG) lies between tag and protein; also called TRIM28; TIF1β; source: also coexpressed with MBP-KRAB in E. coli and co-purified (StrepTrap, Superose 6 SEC); not shown: His6, N-terminal, kept"}, "B5": {"name": "KAP1 RBCC (residues 50-413), wild type (domain or fragment, human, UniProt Q13263 50-413, looked up)", "chain": "B2 chain with A65V, A74Q, A76F, A78K", "notes": "KAP1 (TRIM28), human, UniProt Q13263, residues 50-413 (RING, B-box 1, B-box 2, coiled coil); rows of m3 with m3 give the step in the assay's format; also called KAP1 RBCC motif; KAP1 TRIM; not shown: His6, N-terminal, cleaved"}, "B6": {"name": "Twin-StrepII-MBP-ZNF93 KRAB (KRAB domain residues 1-71 of ZNF93) (domain or fragment)", "chain": "not shown", "notes": "ZNF93, UniProt P35789, KRAB domain residues 1-71; The MBP tag was also required for protein solubility; also called MBP-KRAB; ZNF93 MBP-KRAB; source: E. coli BL21 (DE3), purified (StrepTrap, Superdex 200 SEC); also coexpressed with KAP1 in E. coli and co-purified; not shown: Twin-StrepII, N-terminal, kept; MBP, N-terminal, kept"}}, "key": {"[1]": {"molecular_target": "the molecule itself", "assay": "SEC-MALS; RING-B-box 1 (WT at 33 to 610 µM; B-box 1 mutant); monomer to dimer; Superdex 75 (10/300), 20 mM Hepes pH 8, 0.2 M NaCl, 0.5 mM TCEP, 293 K"}, "[2]": {"molecular_target": "the molecule itself", "assay": "SEC-MALS; KAP1 RBCC at low protein concentration (8.7 µM, 0.35 g/L); monomers to dimer; Superdex 200 (10/300), 20 mM Hepes pH 8, 0.5 M NaCl, 0.5 mM TCEP, 293 K"}, "[3]": {"molecular_target": "B6", "assay": "SEC-MALS; full-length KAP1 and ZNF93 MBP-KRAB coexpressed in E. coli and co-purified (StrepTrap, SEC); Superose 6 (10/300), 20 mM Hepes pH 8, 0.5 M NaCl, 0.5 mM TCEP, 293 K; total protein 1.2 g/L", "settings": "both partners purified"}, "[4]": {"molecular_target": "the molecule itself", "assay": "SEC-MALS; full-length KAP1 and ZNF93 MBP-KRAB coexpressed in E. coli and co-purified (StrepTrap, SEC); Superose 6 (10/300), 20 mM Hepes pH 8, 0.5 M NaCl, 0.5 mM TCEP, 293 K; total protein 1.2 g/L"}, "[5]": {"molecular_target": "B5", "assay": "SPR; Biacore T200, CM5 chip, MBP-KRAB immobilized (~600 RU), KAP1 RBCC flowed over (1:2 dilution series from 34 µM WT, 35 µM mutant), 20 mM Hepes pH 8.0, 0.5 M NaCl, 0.5 mM TCEP, 20 °C; biphasic kinetic model", "settings": "both partners purified"}}, "note": "Positions count from the first letter of the chain named. In names and notes the source's numbering stands."}
{"binder": "B1", "values": [{"measurement": "stoichiometry N", "setting": "[1]", "value": 2}]}
{"binder": "B2", "values": [{"measurement": "binding result", "setting": "[2]", "value": "binds"}]}
{"binder": "B3", "values": [{"measurement": "binding result", "setting": "[2]", "value": "binds"}]}
{"binder": "B4", "values": [{"measurement": "stoichiometry N", "setting": "[3]", "value": 2, "unit": "KAP1 per KRAB"}, {"measurement": "binding result", "setting": "[4]", "value": "binds"}]}
{"binder": "B5", "values": [{"measurement": "stoichiometry N", "setting": "[2]", "value": 2}]}
{"binder": "B6", "values": [{"measurement": "Kd", "setting": "[5]", "value": "8 ± 2", "unit": "nM"}, {"measurement": "koff", "setting": "[5]", "value": 0.00027, "unit": "s⁻¹"}, {"measurement": "kon", "setting": "[5]", "value": 36000, "unit": "M⁻¹ s⁻¹"}]}
